In PMC7840522, “Ca14-3-3 Interacts With CaWRKY58 to Positively Modulate Pepper Response to Low-Phosphorus Starvation”:

T1: CaWRKY58-6xHis (Capsicum annuum, UniProt Q5DJV3 1-378)
T1 sequence: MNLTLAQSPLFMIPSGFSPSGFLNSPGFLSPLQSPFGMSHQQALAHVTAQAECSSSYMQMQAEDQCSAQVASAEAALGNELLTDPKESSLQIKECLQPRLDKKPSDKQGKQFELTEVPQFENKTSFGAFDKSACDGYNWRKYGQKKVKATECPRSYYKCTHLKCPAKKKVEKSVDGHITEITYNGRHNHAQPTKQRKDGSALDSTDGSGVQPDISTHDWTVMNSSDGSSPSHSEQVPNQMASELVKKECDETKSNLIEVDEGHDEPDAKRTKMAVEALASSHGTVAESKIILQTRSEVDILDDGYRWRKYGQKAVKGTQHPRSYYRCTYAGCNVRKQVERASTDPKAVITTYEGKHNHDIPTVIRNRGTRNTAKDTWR


Tests used:
[1] = molecular target: Ca14-3-3-GFP (pepper (Capsicum annuum)); test: MST; 20 nM Ca14-3-3-GFP as target, CaWRKY58-6 × His as ligand serially diluted (1.0E^-10 to 1.0E^-3 mM), 10 min in interaction buffer, Monolith NT.115, 50% IR laser power, ambient temperature
CaWRKY58-6xHis = molecular target: T1, CaWRKY58-6xHis; test: EMSA; not stated in the material (EMSA as in cited works; Cy5 probes, Odyssey CLX); conditions: protein: recombinant; tags: 6xHis (pDEST17; text says N-terminal 6xHis); label: Cy5

Molecule | Kd [1] [nM] | binding result (CaWRKY58-6xHis)
CaWRKY58-6 × His (GFP fusion protein) | 210 | –
mCaPHR1-P (mCaPHR1-Pcy5) (dsDNA) DNA 1: AAACTATGCTCCTACATCTAAATTT DNA 2: AAATTTAGATGTAGGAGCATAGTTT | – | no binding
